According to article PMC10018343 (Nucleic Acids Research, 2023):

T1: biotinylated Bre1^R6BR (Bre1 amino acids 1-212 with AviTag) (S. cerevisiae, UniProt Q07457 1-212, biotin on the AviTag)
T1 sequence (looked up): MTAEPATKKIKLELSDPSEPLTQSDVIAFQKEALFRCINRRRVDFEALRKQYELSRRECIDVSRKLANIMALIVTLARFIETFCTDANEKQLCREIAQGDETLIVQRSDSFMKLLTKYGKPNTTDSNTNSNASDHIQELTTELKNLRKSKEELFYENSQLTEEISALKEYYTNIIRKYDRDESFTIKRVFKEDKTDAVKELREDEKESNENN

B1: His6Rad6 (amino acids 1-150), co-expressed with Bre1^R6BR (enzyme, S. cerevisiae, UniProt P06104 1-150, looked up)
chain: MSTPARRRLMRDFKRMKEDAPPGVSASPLPDNVMVWNAMIIGPADTPYEDGTFRLLLEFDEEYPNKPPHVKFLSEMFHPNVYANGEICLDILQNRWTPTYDVASILTSIQSLFNDPNPASPANVEAATLFKDHKSQYVKRVKETVEKSWE
B2: Bre1^R6BR (Bre1 amino acids 1-212, Rad6-binding region) (domain or fragment, S. cerevisiae, UniProt Q07457 1-212, looked up)
chain: T1 sequence (looked up)
B3: His6Rad6 (wild type), purified alone as BLI analyte (enzyme, S. cerevisiae, UniProt P06104 1-172, looked up)
chain: MSTPARRRLMRDFKRMKEDAPPGVSASPLPDNVMVWNAMIIGPADTPYEDGTFRLLLEFDEEYPNKPPHVKFLSEMFHPNVYANGEICLDILQNRWTPTYDVASILTSIQSLFNDPNPASPANVEAATLFKDHKSQYVKRVKETVEKSWEDDMDDMDDDDDDDDDDDDDEAD

Tests used:
[1] = target: B2; experiment: SEC-MALS
[2] = target: the molecule itself; experiment: SEC-MALS
[3] = target: T1, biotinylated Bre1^R6BR (Bre1 amino …); experiment: BLI

Binder: B1
stoichiometry N [1]: 0.5 Rad6 per Bre1^R6BR subunit

Binder: B2
stoichiometry N [2]: 2

Binder: B3
Kd [3]: 112 nM
